In one data set the test system is MCF7. The experiment in a line: percentage of EdU-negative (G0-arrested) nuclei per well, 72 h; higher = more G0 arrest. The settings on record: reference: sequence is the full UniProt precursor, the tested protein was the secreted form or ectodomain.
The test system of a further data set is hTERT-HMEC. The data set is described as above. The settings on record: reference: sequence is the full UniProt precursor, the tested protein was the secreted form or ectodomain.
Setting [1] is: protein concentration 0.0225 µM.
Where [2] appears, read: protein concentration 0.0175 µM.
[3] abbreviates: protein concentration 0.01175 µM.
The mark [4] stands for this setting: protein concentration 0.1175 µM.

± gives the standard deviation of the averaged measurements.
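Further: secreted proteins added to cultured cells, EdU pulse at the end, nuclei found by Hoechst imaging, EdU status from nuclear versus surrounding ring intensity ratio, PBS as neutral control.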

Take “MARERPPGRGCGVLRRCLLGAVLLFGLRLCAELRRAGPGSPTRSAPPGPAWRPPGPHLPPAPGQPRGASRRQVTYVRSGRRAPPGGGGSGTPEPGCCAPRGRPRRKGPRWHIDLQPWAGSAQSLDEEAWRFLRYISTTQIACNHMNTDSLATDSSPTHKPWSVCLDDRFNLAHQIRNKQCRLYSLGLGSDDTHFEVSMANNGCEVHRFDPSVKSAHILESQHLWYHRLSIDWRDPHPAVAAQKPHSNTRKLGSILNEFGHHKIDVLKADLESAEWKVLENLILEDVLEQIGQLIFEIHLHWPGFEVSGSDSSVVRFWYSLLKELEQKDFRLFHSYKDLSKPQLFLKKDIFNASSCYTLSWVNTRWK [Q5JXM2]”: the “percentage of EdU-negative” value was determined as 26.3 ± 1.3% in the data set on MCF7 (protein concentration 0.017 µM), 28.6 ± 1.7% in the data set with MCF7 (protein concentration 0.17 µM), 4.87 ± 0.35% in the data set with hTERT-HMEC (protein concentration 0.017 µM) and 10.9 ± 1.9% with hTERT-HMEC (protein concentration 0.17 µM).

In the case of “MGPLPVCLPIMLLLLLPSLLLLLLLPGPGSGEASRILRVHRRGILELAGTVGCVGPRTPIAYMKYGCFCGLGGHGQPRDAIDWCCHGHDCCYTRAEEAGCSPKTERYSWQCVNQSVLCGPAENKCQELLCKCDQEIANCLAQTEYNLKYLFYPQFLCEPDSPKCD”, the “percentage of EdU-negative” value came out at 29.3 ± 2.5% with MCF7 (setting [1]), 31.17 ± 0.13% in the data set with MCF7 (protein concentration 0.225 µM), 7.05 ± 0.95% with hTERT-HMEC (setting [1]) and 10.3 ± 2.1% in the data set on hTERT-HMEC (protein concentration 0.225 µM).

For “MGFNLTFHLSYKFRLLLLLTLCLTVVGWATSNYFVGAIQEIPKAKEFMANFHKTLILGKGKTLTNEASTKKVELDNCPSVSPYLRGQSKLIFKPDLTLEEVQAENPKVSRGRYRPQECKALQRVAILVPHRNREKHLMYLLEHLHPFLQRQQLDYGIYVIHQAEGKKFNRAKLLNVGYLEALKEENWDCFIFHDVDLVPENDFNLYKCEEHPKHLVVGRNSTGYRLRYSGYFGGVTALSREQFFKVNGFSNNYWGWGGEDDDLRLRVELQRMKISRPLPEVGKYTMVFHTRDKGNEVNAERMKLLHQVSRVWRTDGLSSCSYKLVSVEHNPLYINITVDFWFGA”, the “percentage of EdU-negative” value in the data set with MCF7 (setting [1]) was found to be 25.1 ± 1.2%; with MCF7 (protein concentration 0.225 µM), 27.9 ± 0.9%; in the data set on hTERT-HMEC (setting [1]) it was 5.14 ± 0.69%; in the data set with hTERT-HMEC (protein concentration 0.225 µM), 6.72 ± 0.53%.

On to “MLLRGVLLALQALQLAGALDLPAGSCAFEESTCGFDSVLASLPWILNEEGHYIYVDTSFGKQGEKAVLLSPDLQAEEWSCLRLVYQITTSSESLSDPSQLNLYMRFEDESFDRLLWSAKEPSDSWLIASLDLQNSSKKFKILIEGVLGQGNTASIALFEIKMTTGYCIECDFEENHLCGFVNRWNPNVNWFVGGGSIRNVHSILPQDHTFKSELGHYMYVDSVYVKHFQEVAQLISPLTTAPMAGCLSFYYQIQQGNDNVFSLYTRDVAGLYEEIWKADRPGNAAWNLAEVEFSAPYPMEVIFEVAFNGPKGGYVALDDISFSPVHCQNQTELLFSAVEASCNFEQDLCNFYQDKEGPGWTRVKVKPNMYRAGDHTTGLGYYLLANTKFTSQPGYIGRLYGPSLPGNLQYCLRFHYAIYGFLKMSDTLAVYIFEENHVVQEKIWSVLESPRGVWMQAEITFKKPMPTKVVFMSLCKSFWDCGLVALDDITIQLGSCSSSEKLPPPPGECTFEQDECTFTQEKRNRSSWHRRRGETPTSYTGPKGDHTTGVGYYMYIEASHMVYGQKARLLSRPLRGVSGKHCLTFFYHMYGGGTGLLSVYLKKEEDSEESLLWRRRGEQSISWLRALIEYSCERQHQIIFEAIRGVSIRSDIAIDDVKFQAGPCGEMEDTTQQSSGYSEDLNEIEY [Q7Z304]”, for which the “percentage of EdU-negative” value came out at 28.1 ± 1.3% with MCF7 (setting [2]), 31.9 ± 1.8% with MCF7 (protein concentration 0.175 µM), 5.68 ± 0.56% with hTERT-HMEC (setting [2]) and 8.11 ± 0.92% in the data set with hTERT-HMEC (protein concentration 0.175 µM).

With “MKISILLMFLWGLSCALPVTRYQNNESEDSEEWKGHLAQAPTPPLESSESSEGSKVSSEEQANEDPSDSTQSEEGLGSDDHQYIYRLAGGFSRSTGKGGDDKDDDEDDSGDDTFGDDDSGPGPKDRQEGGNSRLGSDEDSDDTIQASEESAPQGQDSAQDTTSESRELDNEDRVDSKPEGGDSTQESESEEHWVGGGSDGESSHGDGSELDDEGMQSDDPESIRSERGNSRMNSAGMKSKESGENSEQANTQDSGGSQLLEHPSRKIFRKSRISEEDDRSELDDNNTMEEVKSDSTENSNSRDTGLSQPRRDSKGDSQEDSKENLSQEESQNVDGPSSESSQEANLSSQENSSESQEEVVSESRGDNPDPTTSYVEDQEDSDSSEEDSSHTLSHSKSESREEQADSESSESLNFSEESPESPEDENSSSQEGLQSHSSSAESQSEESHSEEDDSDSQDSSRSKEDSNSTESKSSSEEDGQLKNIEIESRKLTVDAYHNKPIGDQDDNDCQDGY”, the “percentage of EdU-negative” value in the data set with MCF7 (protein concentration 0.021 µM) is 24.6 ± 0.6%; in the data set on MCF7 (protein concentration 0.21 µM) it was 26.3 ± 0.99%; in the data set on hTERT-HMEC (protein concentration 0.021 µM), 4.74 ± 0.51%; with hTERT-HMEC (protein concentration 0.21 µM) it was 14.1 ± 2.1%.

For “MEKILFYLFLIGIAVKAQICPKRCVCQILSPNLATLCAKKGLLFVPPNIDRRTVELRLADNFVTNIKRKDFANMTSLVDLTLSRNTISFITPHAFADLRNLRALHLNSNRLTKITNDMFSGLSNLHHLILNNNQLTLISSTAFDDVFALEELDLSYNNLETIPWDAVEKMVSLHTLSLDHNMIDNIPKGTFSHLHKMTRLDVTSNKLQKLPPDPLFQRAQVLATSGIISPSTFALSFGGNPLHCNCELLWLRRLSREDDLETCASPPLLTGRYFWSIPEEEFLCEPPLITRHTHEMRVLEGQRATLRCKARGDPEPAIHWISPEGKLISNATRSLVYDNGTLDILITTVKDTGAFTCIASNPAGEATQIVDLHIIKLPHLLNSTNHIHEPDPGSSDISTSTKSGSNTSSSNGDTKLSQDKIVVAEATSSTALLKFNFQRNIPGIRMFQIQYNGTYDDTLVYRMIPPTSKTFLVNNLAAGTMYDLCVLAIYDDGITSLTATRVVGCIQFTTEQDYVRCHFMQSQFLGGTMIIIIGGIIVASVLVFIIILMIRYKVCNNNGQHKVTKVSNVYSQTNGAQIQGCSVTLPQSVSKQAVGHEENAQCCKATSDNVIQSSETCSSQDSSTTTSALPPSWTSSTSVSQKQKRKTGTKPSTEPQNEAVTNVESQNTNRNNSTALQLASRPPDSVTEGPTSKRAHIKPNALLTNVDQIVQETQRLELI [G3V364]”, the “percentage of EdU-negative” value in the data set on MCF7 (setting [3]) worked out at 25.9 ± 2.7%; with MCF7 (setting [4]) it was 27.1 ± 1.2%; with hTERT-HMEC (setting [3]), 4.44 ± 0.44%; with hTERT-HMEC (setting [4]), 6.29 ± 1.1%.

In the case of “MGPLINRCKKILLPTTVPPATMRIWLLGGLLPFLLLLSGLQRPTEGSEVAIKIDFDFAPGSFDDQYQGCSKQVMEKLTQGDYFTKDIEAQKNYFRMWQKAHLAWLNQGKVLPQNMTTTHAVAILFYTLNSNVHSDFTRAMASVARTPQQYERSFHFKYLHYYLTSAIQLLRKDSIMENGTLCYEVHYRTKDVHFNAYTGATIRFGQFLSTSLLKEEAQEFGNQTLFTIFTCLGAPVQYFSLKKEVLIPPYELFKVINMSYHPRGDWLQLRSTGNLSTYNCQLLKASSKKCIPDPIAIASLSFLTSVIIFSKSRV”, the “percentage of EdU-negative” value in the data set on MCF7 (setting [1]) turned out to be 23.9 ± 0.46%; in the data set on MCF7 (protein concentration 0.225 µM), 27.2 ± 0.8%; with hTERT-HMEC (setting [1]), 5.08 ± 0.63%; with hTERT-HMEC (protein concentration 0.225 µM), 6.69 ± 0.27%.

These data come from the supplement of paper PMC11316812.
